Results reported in patent EP3024460B1 (Immunomedics, Inc., dated 2020).

Experiments:
CD74 [1] = target: T1, CD74 (human, UniProt P04233 1-296); assay: cell-based or functional assay
T1 construct: whole, on cells; Endogenous antigen of human tumor cell lines; measured on the surface or, after permeabilization, surface and cytoplasmic; also called invariant chain; Ii
T1 sequence (looked up): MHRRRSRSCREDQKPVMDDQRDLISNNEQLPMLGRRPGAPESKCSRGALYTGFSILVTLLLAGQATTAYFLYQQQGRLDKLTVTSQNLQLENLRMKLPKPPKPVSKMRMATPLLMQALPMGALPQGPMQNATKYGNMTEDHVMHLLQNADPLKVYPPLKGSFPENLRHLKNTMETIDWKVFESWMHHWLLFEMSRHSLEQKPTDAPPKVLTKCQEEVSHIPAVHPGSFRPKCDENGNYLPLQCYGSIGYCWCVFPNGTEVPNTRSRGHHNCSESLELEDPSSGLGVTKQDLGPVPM

CD74 [2] = target: T1, CD74; assay: cell binding to antigen-positive cells (cell line not stated)
CD22 (human) = CD22 (human) (UniProt P20273); assay: cell-based or functional assay
[3] = target: Human trophoblast cell-surface antigen (TROP-2) (human) (UniProt P09758); assay: cell-based or functional assay
Human trophoblast cell-surface antigen (TROP-2) (human), sequence (P09758 27-323): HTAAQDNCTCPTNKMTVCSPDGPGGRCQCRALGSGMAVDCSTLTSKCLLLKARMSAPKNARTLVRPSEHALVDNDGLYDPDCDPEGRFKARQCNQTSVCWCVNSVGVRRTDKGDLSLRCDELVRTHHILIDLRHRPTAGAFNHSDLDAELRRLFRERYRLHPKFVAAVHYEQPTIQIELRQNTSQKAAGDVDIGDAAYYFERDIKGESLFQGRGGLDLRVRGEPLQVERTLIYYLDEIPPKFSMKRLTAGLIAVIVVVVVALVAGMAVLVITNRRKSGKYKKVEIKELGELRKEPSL

[4] = target: Human trophoblast cell-surface antigen (TROP-2) (human) (UniProt P09758); assay: cell binding assay on TROP-2-expressing cells
[5] = target: Human trophoblast cell-surface antigen (TROP-2) (human) (UniProt P09758); assay: FACS on PC-3 cells; background 5.5
[6] = target: Human trophoblast cell-surface antigen (TROP-2) (human) (UniProt P09758); assay: FACS on COLO 205 cells; background 4.5
[7] = target: Human trophoblast cell-surface antigen (TROP-2) (human) (UniProt P09758); assay: FACS on BxPC-3 cells; background 3.1
[8] = target: Human trophoblast cell-surface antigen (TROP-2) (human) (UniProt P09758); assay: FACS on BxPC-3 cells
[9] = target: Human trophoblast cell-surface antigen (TROP-2) (human) (UniProt P09758); assay: FACS on SK-MES-1 cells
[10] = target: Human trophoblast cell-surface antigen (TROP-2) (human) (UniProt P09758); assay: flow cytometry, surface of NCI-N87 cells
[11] = target: Human trophoblast cell-surface antigen (TROP-2) (human) (UniProt P09758); assay: FACS on Calu-3 cells; background 4.7
[12] = target: Human trophoblast cell-surface antigen (TROP-2) (human) (UniProt P09758); assay: FACS on SK-MES-1 cells; background 3.5
[13] = target: Human trophoblast cell-surface antigen (TROP-2) (human) (UniProt P09758); assay: FACS on PC-3 cells
[14] = target: Human trophoblast cell-surface antigen (TROP-2) (human) (UniProt P09758); assay: FACS on COLO 205 cells
[15] = target: Human trophoblast cell-surface antigen (TROP-2) (human) (UniProt P09758); assay: FACS on Capan-1 cells
[16] = target: Human trophoblast cell-surface antigen (TROP-2) (human) (UniProt P09758); assay: flow cytometry, surface of Capan-1 cells
[17] = target: Human trophoblast cell-surface antigen (TROP-2) (human) (UniProt P09758); assay: FACS on Calu-3 cells
[18] = target: Human trophoblast cell-surface antigen (TROP-2) (human) (UniProt P09758); assay: FACS on Capan-1 cells; background 5.0
CD74 [19] = target: T1, CD74; assay: flow cytometry, surface CD74 on NCI-N87 cells
CD74 [20] = target: T1, CD74; assay: flow cytometry, surface and cytoplasmic CD74 in permeabilized Raji cells
CD74 [21] = target: T1, CD74; assay: flow cytometry, surface and cytoplasmic CD74 in permeabilized Hs746T cells
CD74 [22] = target: T1, CD74; assay: flow cytometry, surface CD74 on Hep-G2 cells
CD74 [23] = target: T1, CD74; assay: flow cytometry, surface and cytoplasmic CD74 in permeabilized Capan-1 cells
CD74 [24] = target: T1, CD74; assay: flow cytometry, surface CD74 on Hs746T cells
CD74 [25] = target: T1, CD74; assay: flow cytometry, surface CD74 on Capan-1 cells
CD74 [26] = target: T1, CD74; assay: flow cytometry, surface CD74 on Raji cells
CD74 [27] = target: T1, CD74; assay: flow cytometry, surface and cytoplasmic CD74 in permeabilized Hep-G2 cells
CD74 [28] = target: T1, CD74; assay: flow cytometry, surface and cytoplasmic CD74 in permeabilized A-375 cells
CD74 [29] = target: T1, CD74; assay: flow cytometry, surface and cytoplasmic CD74 in permeabilized NCI-N87 cells
CD74 [30] = target: T1, CD74; assay: flow cytometry, surface CD74 on HuH-7 cells
CD74 [31] = target: T1, CD74; assay: flow cytometry, surface CD74 on A-375 cells
CD74 [32] = target: T1, CD74; assay: flow cytometry, surface and cytoplasmic CD74 in permeabilized HuH-7 cells

## milatuzumab-CL2E-SN-38 (antibody)
CD74 [1]
  in vitro cytotoxicity (MTS assay), potency against free SN-38 in 4 solid tumor cell lines (fold lower potency than free SN-38): 7 to 16
CD74 [2]
  Kd: 0.8 nM

## Emab-CL2E-SN-38 (antibody)
CD22 (human)
  in vitro cytotoxicity (MTS assay), potency against the nonbinding control conjugate: 2 fold

## milatuzumab-CL2A-SN-38 (antibody)
CD74 [2]
  Kd: 0.59 nM

B1: hRS7-CL2A-SN-38 (antibody, INN chains, looked up, V domains shown, part only)
VH: QVQLQQSGSELKKPGASVKVSCKASGYTFTNYGMNWVKQAPGQGLKWMGWINTYTGEPTYTDDFKGRFAFSLDTSVSTAYLQISSLKADDTAVYFCARGGFGSSYWYFDVWGQGSLVTVSS
VL: DIQLTQSPSSLSASVGDRVSITCKASQDVSIAVAWYQQKPGKAPKLLIYSASYRYTGVPDRFSGSGSGTDFTLTISSLQPEDFAVYYCQQHYITPLTFGAGTKVEIK
modifications: SN-38 via CL2A linker (sacituzumab govitecan)
[3]
  ADC/free SN-38 ratio (IC50, in vitro cytotoxicity), Calu-3: 1.39
  ADC/free SN-38 ratio (IC50, in vitro cytotoxicity), SK-MES-1: 2.69
[4]
  Kd: 1.2 nM

B2: Humanized RS7 IgG (antibody, INN chains, looked up, V domains shown, part only)
VH: QVQLQQSGSELKKPGASVKVSCKASGYTFTNYGMNWVKQAPGQGLKWMGWINTYTGEPTYTDDFKGRFAFSLDTSVSTAYLQISSLKADDTAVYFCARGGFGSSYWYFDVWGQGSLVTVSS
VL: DIQLTQSPSSLSASVGDRVSITCKASQDVSIAVAWYQQKPGKAPKLLIYSASYRYTGVPDRFSGSGSGTDFTLTISSLQPEDFAVYYCQQHYITPLTFGAGTKVEIK
modifications: IgG1
[5]
  Median fluorescence: 46.2
[6]
  Median fluorescence: 142
[7]
  Median fluorescence: 26.4
[8]
  Percent positive: 98.3%
[9]
  Percent positive: 91.2%
[10]
  MFI: 795
[11]
  Median fluorescence: 282
[12]
  Median fluorescence: 44
[13]
  Percent positive: 73.6%
[14]
  Percent positive: 99.5%
[15]
  Percent positive: 94.2%
[16]
  MFI: 237
[17]
  Percent positive: 99.6%
[18]
  Median fluorescence: 100

B3: hRS7-CL2-SN-38 (antibody, INN chains, looked up, V domains shown, part only)
VH: QVQLQQSGSELKKPGASVKVSCKASGYTFTNYGMNWVKQAPGQGLKWMGWINTYTGEPTYTDDFKGRFAFSLDTSVSTAYLQISSLKADDTAVYFCARGGFGSSYWYFDVWGQGSLVTVSS
VL: DIQLTQSPSSLSASVGDRVSITCKASQDVSIAVAWYQQKPGKAPKLLIYSASYRYTGVPDRFSGSGSGTDFTLTISSLQPEDFAVYYCQQHYITPLTFGAGTKVEIK
modifications: SN-38 via CL2 linker
[4]
  Kd: 1.2 nM

B4: Milatuzumab (antibody, V domains shown)
VH: QVQLQQSGSELKKPGASVKVSCKASGYTFTNYGVNWIKQAPGQGLQWMGWINPNTGEPTFDDDFKGRFAFSLDTSVSTAYLQISSLKADDTAVYFCSRSRGKNEAWFAYWGQGTLVTVSS
VL: DIQLTQSPLSLPVTLGQPASISCRSSQSLVHRNGNTYLHWFQQRPGQSPRLLIYTVSNRFSGVPDRFSGSGSGTDFTLKISRVEAEDVGVYFCSQSSHVPPTFGAGTRLEIK
CD74 [19]
  MFI Ratio hLL1:bkgd: 1.3
CD74 [20]
  MFI Ratio hLL1:bkgd: 28.6
CD74 [21]
  MFI Ratio hLL1:bkgd: 28.8
CD74 [2]
  Kd: 0.77 nM
CD74 [22]
  MFI Ratio hLL1:bkgd: 1.5
CD74 [23]
  MFI Ratio hLL1:bkgd: 49.6
CD74 [24]
  MFI Ratio hLL1:bkgd: 2.1
CD74 [25]
  MFI Ratio hLL1:bkgd: 1.8
CD74 [26]
  MFI Ratio hLL1:bkgd: 19.6
CD74 [27]
  MFI Ratio hLL1:bkgd: 31.2
CD74 [28]
  MFI Ratio hLL1:bkgd: 30.8
CD74 [29]
  MFI Ratio hLL1:bkgd: 36.7
CD74 [30]
  MFI Ratio hLL1:bkgd: 1.6
CD74 [31]
  MFI Ratio hLL1:bkgd: 5.3
CD74 [32]
  MFI Ratio hLL1:bkgd: 28.5
